Source: paper doi:10.1101/2022.09.25.509440 (bioRxiv, 2022)

Target: T1, human LRP6-ECD-Fc (human, UniProt O75581 20-1370)
T1 sequence (looked up): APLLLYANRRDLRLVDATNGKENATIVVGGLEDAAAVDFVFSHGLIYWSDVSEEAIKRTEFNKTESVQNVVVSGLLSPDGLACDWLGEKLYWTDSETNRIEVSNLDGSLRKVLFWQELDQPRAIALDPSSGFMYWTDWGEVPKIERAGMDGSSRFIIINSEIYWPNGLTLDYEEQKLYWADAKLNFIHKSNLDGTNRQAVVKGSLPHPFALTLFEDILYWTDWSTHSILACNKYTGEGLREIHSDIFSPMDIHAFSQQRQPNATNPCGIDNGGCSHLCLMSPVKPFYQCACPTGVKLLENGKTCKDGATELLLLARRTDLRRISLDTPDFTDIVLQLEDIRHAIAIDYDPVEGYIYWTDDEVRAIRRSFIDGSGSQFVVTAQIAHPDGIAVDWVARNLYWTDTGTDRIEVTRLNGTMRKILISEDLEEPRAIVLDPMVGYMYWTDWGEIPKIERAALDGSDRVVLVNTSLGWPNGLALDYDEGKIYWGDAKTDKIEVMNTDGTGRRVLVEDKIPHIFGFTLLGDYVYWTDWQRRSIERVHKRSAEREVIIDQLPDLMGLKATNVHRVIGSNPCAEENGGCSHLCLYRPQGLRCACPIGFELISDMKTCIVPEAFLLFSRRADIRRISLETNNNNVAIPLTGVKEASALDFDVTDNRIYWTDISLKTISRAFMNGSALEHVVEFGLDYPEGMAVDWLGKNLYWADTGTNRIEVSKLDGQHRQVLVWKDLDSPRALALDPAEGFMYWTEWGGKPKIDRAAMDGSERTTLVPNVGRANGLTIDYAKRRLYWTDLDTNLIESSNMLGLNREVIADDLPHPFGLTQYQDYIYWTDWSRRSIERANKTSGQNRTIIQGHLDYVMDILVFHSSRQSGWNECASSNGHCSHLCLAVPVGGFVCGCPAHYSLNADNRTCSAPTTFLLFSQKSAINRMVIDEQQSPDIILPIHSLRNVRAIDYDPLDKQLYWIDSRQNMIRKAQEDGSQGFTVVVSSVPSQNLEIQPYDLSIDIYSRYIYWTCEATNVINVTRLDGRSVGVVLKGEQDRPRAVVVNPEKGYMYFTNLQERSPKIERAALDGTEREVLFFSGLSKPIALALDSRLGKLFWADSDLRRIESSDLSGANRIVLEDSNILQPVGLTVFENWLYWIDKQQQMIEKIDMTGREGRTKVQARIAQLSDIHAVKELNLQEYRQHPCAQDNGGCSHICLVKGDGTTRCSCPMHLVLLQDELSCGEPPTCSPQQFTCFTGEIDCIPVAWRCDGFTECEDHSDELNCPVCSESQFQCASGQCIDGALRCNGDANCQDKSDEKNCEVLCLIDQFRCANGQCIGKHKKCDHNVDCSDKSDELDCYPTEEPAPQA
Assay: BLI

B1: recombinant human Wnt3a (ligand, UniProt P56704 19-352, looked up)
chain: SYPIWWSLAVGPQYSSLGSQPILCASIPGLVPKQLRFCRNYVEIMPSVAEGIKIGIQECQHQFRGRRWNCTTVHDSLAIFGPVLDKATRESAFVHAIASAGVAFAVTRSCAEGTAAICGCSSRHQGSPGKGWKWGGCSEDIEFGGMVSREFADARENRPDARSAMNRHNNEAGRQAIASHMHLKCKCHGLSGSCEVKTCWWSQPDFRAIGDFLKDKYDSASEMVVEKHRESRGWVETLRPRYTYFKVPTERDLVYYEASPNFCEPNPETGSFGTRDRTCNVSSHGIDGCDLLCCGRGHNARAERRREKCRCVFHWCCYVSCQECTRVYDVHTCK
B1: binds.
